# In patent US6218508A, “Anti-microbial proteins” (Novartis AG, priority 1993, dated 2001):
# System: C. beticola
# Assay: micro-titre plate bioassay of fungal growth inhibition
# Format: cell-based
# Details: spores of C. beticola, 96 well micro-titre plates, absorbance at 620 nm; FIGS. 4 and 7: 10 ug protein
# Description: The thus obtained IWF is fractionated by cation exchange chromatography on a 10 ml CM-Sepharose column (Pharmacia LKB) pre-equilibrated in starting buffer (20 mM HAc (pH 4.5)). The fractionation is performed at 4° C. at a flow rate of 25 ml/h. Fractions of 3 ml are collected. Proteins not bound to the column are removed by extensive washing of the column with starting buffer. Bound proteins are eluted by applying to the column further starting buffer comprising stepwise increased salt concentrations: viz, 0.1 M NaCl, 0.3 M NACl and 0.5 M NaCl. The absorbance at 280 nm of the eluate is measured, and fractions judged to comprise protein are tested for their anti-fungal activity against C. beticola using the microtiter plate bioassay described previously (PCT Patent Application No. PCT/DK92/00108, Publication No. WO 92/17591, now assigned to Sandoz LTD). […] The inhibition of fungal growth is measured in 96 well micro-titre plates at 620 nm, essentially as described in WO 92/17591. […] The proteins, either alone or in combination with WIN N (which is purified from barley grain or stressed barley leaf as described by Hejgaard et al (FEBS Letters, 307, 389-392 (1992)), and/or a protein having a sequence corresponding to at least one of those given in SEQ ID Nos. 4-6, are incubated with spores of C. beticola. The assay mix (240 ul) contains 100 ul of potato dextrose broth (Difco), 40 ul protein sample (or buffer control) in 100 mM Tris and 20 mM NaCl (pH 8.0) as well as approximately 400 spores in 100 ul water. The micro-titre plates are sealed with tape to avoid evaporation and contamination and subsequently incubated at room temperature on an agitator operated at 200 rpm. The absorbance at 620 nm is measured each day for 8 days and plotted for each concentration of protein vs time.
row,Molecule,anti-fungal activity (inhibition of fungal growth)
1,"SEQ ID No 3: anti-fungal protein of 2.5-3 kDa from sugar beet leaf intercellular washing fluid, peaks 1 and 2 in FIG. 6 (SGECNMYGRCPPGYCCSKFGYCGVGRAYCG)",significant anti-fungal activity
2,"SEQ ID No 1: anti-fungal protein of about 7 kDa from sugar beet leaf intercellular washing fluid, peak 3.1 in FIG. 3 (protein) ITCGLVASKLAPCIGYLQGAPGPSAGCCGGIKGLNSAAASPADRKTACTCLKSAATSIKGINYGKAASLPRQCGVSVPYAISPNTNCNAIH",significant anti-fungal activity
3,"SEQ ID No 2: anti-fungal protein of about 7 kDa from sugar beet leaf intercellular washing fluid, peak 3.2 in FIG. 3 (protein) ITCGLVASKLAPCIGYLQGAPGPSAGCCGGIKGLNSAAASPADRKTACTCLKSAATSMKGINYGKAASLPRQCGVSIPYAISPNTNCNAIH",significant anti-fungal activity
